Assays:
AncSZ = test: phosphorylation enrichment, bacterial display (enrichment ratio); higher = better substrate or ligand; peptides without Tyr show the background
EPHB1 = EPHB1 (UniProt P54762); test: as above
EPHB2 = EPHB2 (UniProt P29323); test: as above
FGFR1 = FGFR1 (UniProt P11362); test: as above
FGFR3 = FGFR3 (UniProt P22607); test: as above
Fer (mouse) = test: as above
Fes = Fes (UniProt P07332); test: as above
Fyn = Fyn (UniProt P06241); test: as above
Hck = Hck (UniProt P08631); test: as above
Chain of Hck (P08631 whole entry, looked up): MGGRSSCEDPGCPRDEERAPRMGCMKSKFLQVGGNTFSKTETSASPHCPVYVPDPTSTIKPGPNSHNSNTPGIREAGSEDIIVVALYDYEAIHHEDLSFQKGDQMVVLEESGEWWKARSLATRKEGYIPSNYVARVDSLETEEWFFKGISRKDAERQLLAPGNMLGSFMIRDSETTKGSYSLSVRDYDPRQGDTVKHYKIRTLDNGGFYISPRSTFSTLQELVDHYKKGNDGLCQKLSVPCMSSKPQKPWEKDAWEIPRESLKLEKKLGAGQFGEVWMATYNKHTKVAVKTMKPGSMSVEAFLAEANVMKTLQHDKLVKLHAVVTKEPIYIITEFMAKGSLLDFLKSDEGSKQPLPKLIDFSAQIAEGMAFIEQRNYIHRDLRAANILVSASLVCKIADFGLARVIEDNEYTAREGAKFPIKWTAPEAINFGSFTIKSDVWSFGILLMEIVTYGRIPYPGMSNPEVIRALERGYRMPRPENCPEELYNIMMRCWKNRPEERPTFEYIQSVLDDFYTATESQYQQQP

Jak2 = Jak2 (UniProt O60674); test: as above
MERTK = MERTK (UniProt Q12866); test: as above
Chain of MERTK (Q12866 whole entry, looked up): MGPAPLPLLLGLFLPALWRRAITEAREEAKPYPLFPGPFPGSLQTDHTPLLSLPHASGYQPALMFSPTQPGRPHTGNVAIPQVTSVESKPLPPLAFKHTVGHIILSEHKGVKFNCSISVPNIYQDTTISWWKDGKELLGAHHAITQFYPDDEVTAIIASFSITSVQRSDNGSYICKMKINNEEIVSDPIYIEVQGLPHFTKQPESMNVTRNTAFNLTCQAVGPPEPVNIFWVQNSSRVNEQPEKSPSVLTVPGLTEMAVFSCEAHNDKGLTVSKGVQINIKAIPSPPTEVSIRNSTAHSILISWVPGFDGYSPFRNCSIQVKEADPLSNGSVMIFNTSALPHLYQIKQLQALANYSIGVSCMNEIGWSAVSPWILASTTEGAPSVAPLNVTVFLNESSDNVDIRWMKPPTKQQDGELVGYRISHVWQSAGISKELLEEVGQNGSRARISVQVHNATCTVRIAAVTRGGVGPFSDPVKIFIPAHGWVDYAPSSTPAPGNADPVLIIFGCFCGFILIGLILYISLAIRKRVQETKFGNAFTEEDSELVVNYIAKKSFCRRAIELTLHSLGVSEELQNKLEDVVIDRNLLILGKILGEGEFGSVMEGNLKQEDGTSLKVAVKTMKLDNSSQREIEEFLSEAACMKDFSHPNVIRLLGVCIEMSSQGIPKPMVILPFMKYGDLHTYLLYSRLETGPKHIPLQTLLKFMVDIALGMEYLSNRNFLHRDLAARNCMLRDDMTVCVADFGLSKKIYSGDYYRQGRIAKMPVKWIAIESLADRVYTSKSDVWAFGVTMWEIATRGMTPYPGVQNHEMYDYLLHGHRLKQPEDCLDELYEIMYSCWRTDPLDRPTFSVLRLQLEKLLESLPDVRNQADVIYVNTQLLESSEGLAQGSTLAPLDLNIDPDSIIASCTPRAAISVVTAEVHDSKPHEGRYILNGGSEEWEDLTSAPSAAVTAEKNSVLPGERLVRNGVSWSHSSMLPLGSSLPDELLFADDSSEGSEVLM

c-Abl (mouse) = test: as above
c-Src = test: as above
Grb2 SH2 = Grb2 SH2 (UniProt P62993); test: SH2 binding enrichment of the phosphorylated peptide, bacterial display (enrichment ratio); higher = better substrate or ligand; peptides without Tyr show the background
SHP2-C SH2 = test: as above
c-Src SH2 = test: as above
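Throughout, for SH2 binding enrichment of the phosphorylated peptide, bacterial display: peptide library displayed on the E. coli surface as eCPX fusions, selected cells deep-sequenced, score is each peptide's frequency after selection divided by its frequency in the input.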
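Throughout, for phosphorylation enrichment, bacterial display: 11-residue human phosphosite peptides and single-mutation variants displayed on the E. coli surface, counted by deep sequencing, each peptide's frequency after selection divided by its frequency in the unselected input library; frequency after pTyr selection over input frequency; kinase dosed for 20-30% of maximal phosphorylation in three min.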

Chain of FGFR3 (P22607 whole entry, looked up): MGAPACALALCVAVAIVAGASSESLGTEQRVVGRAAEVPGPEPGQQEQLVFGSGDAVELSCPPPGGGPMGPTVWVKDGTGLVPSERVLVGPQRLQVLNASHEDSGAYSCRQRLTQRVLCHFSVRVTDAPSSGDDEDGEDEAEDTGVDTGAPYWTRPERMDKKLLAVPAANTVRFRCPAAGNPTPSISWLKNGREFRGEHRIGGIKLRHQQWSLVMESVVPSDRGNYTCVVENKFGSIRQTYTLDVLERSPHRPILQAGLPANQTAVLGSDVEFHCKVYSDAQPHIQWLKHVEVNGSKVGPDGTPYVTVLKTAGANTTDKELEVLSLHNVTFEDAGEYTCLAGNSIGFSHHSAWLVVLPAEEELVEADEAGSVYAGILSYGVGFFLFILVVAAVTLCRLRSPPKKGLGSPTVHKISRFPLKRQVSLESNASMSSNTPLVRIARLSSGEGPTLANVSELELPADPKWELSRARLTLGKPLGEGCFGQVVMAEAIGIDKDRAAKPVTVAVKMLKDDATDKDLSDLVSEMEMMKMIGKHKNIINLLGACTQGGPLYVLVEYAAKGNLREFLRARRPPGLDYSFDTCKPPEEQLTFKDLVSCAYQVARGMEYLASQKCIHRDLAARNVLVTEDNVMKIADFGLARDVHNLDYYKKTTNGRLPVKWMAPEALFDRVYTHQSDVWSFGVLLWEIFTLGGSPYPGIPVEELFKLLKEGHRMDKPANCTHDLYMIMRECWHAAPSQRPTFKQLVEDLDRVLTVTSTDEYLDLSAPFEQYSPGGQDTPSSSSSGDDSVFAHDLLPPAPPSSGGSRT
Chain of FGFR1 (P11362 whole entry, looked up): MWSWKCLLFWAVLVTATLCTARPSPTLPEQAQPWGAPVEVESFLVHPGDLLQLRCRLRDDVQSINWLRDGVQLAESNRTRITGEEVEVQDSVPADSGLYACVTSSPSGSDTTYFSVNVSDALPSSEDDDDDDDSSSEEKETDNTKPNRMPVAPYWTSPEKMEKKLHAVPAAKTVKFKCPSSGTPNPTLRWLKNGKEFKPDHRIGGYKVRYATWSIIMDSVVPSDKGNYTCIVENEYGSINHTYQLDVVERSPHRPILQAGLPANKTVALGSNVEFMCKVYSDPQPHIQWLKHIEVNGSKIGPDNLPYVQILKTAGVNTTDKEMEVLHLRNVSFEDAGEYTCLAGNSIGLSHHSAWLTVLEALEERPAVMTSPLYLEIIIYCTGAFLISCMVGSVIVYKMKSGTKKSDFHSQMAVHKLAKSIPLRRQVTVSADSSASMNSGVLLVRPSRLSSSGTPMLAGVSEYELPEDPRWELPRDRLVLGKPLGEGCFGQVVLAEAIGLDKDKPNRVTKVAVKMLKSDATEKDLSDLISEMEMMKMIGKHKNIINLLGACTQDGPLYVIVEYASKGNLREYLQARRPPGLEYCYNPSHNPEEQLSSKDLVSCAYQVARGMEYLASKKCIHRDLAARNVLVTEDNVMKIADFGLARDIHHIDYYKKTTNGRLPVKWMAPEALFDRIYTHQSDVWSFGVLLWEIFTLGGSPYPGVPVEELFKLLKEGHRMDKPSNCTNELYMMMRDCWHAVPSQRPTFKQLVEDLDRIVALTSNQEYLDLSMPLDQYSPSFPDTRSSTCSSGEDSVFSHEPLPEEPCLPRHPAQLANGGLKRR
Chain of EPHB2 (P29323 whole entry, looked up): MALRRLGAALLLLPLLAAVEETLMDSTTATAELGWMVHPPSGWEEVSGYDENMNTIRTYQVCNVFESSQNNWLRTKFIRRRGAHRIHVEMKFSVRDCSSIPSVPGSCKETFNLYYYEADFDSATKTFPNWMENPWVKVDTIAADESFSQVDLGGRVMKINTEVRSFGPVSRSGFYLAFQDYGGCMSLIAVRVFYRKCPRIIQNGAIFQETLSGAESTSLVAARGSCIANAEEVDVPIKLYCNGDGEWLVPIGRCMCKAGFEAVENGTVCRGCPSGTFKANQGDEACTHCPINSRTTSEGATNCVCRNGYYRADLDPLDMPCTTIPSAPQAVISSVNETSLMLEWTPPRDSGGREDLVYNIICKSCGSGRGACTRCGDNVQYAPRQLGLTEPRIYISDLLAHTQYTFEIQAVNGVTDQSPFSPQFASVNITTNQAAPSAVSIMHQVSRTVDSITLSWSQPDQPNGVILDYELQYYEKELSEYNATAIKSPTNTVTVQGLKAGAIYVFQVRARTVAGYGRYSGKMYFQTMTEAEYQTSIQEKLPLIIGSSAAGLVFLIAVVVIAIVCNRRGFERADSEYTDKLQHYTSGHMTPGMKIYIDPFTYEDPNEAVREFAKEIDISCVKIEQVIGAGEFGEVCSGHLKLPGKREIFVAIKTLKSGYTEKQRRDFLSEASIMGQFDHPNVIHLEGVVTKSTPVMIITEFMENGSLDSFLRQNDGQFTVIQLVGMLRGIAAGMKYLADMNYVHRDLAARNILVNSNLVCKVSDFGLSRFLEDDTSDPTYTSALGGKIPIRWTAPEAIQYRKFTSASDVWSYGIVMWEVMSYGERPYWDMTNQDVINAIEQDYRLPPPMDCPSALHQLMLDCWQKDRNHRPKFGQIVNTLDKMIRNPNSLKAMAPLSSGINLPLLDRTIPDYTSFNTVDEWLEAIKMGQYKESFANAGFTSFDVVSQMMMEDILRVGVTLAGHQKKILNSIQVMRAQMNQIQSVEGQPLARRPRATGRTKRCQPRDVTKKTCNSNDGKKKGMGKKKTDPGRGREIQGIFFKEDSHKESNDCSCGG
Chain of Fes (P07332 whole entry, looked up): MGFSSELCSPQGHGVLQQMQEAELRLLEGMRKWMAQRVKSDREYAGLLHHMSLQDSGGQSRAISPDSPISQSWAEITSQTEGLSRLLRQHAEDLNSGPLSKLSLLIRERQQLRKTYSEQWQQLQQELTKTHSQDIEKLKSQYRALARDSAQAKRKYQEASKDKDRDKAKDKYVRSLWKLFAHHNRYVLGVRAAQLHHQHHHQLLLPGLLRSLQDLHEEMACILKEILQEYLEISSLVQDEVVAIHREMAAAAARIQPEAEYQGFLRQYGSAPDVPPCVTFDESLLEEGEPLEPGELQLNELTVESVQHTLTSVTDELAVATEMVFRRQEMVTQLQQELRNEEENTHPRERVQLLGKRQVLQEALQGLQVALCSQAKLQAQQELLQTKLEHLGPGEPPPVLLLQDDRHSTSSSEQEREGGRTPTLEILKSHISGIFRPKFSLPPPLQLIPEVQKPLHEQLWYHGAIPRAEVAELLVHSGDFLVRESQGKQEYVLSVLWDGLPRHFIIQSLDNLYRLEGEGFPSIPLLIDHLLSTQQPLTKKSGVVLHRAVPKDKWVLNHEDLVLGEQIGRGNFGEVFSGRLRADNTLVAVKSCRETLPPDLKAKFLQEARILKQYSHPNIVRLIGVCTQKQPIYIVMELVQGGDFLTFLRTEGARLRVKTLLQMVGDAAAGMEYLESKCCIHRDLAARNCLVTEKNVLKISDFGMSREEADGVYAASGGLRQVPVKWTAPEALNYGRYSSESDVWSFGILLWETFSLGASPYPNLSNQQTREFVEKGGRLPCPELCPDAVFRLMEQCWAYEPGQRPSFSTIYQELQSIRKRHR

| Sequence | phosphorylation enrichment (AncSZ) | phosphorylation enrichment (EPHB1) | phosphorylation enrichment (EPHB2) | phosphorylation enrichment (FGFR1) | phosphorylation enrichment (FGFR3) | phosphorylation enrichment (Fer (mouse)) | phosphorylation enrichment (Fes) | phosphorylation enrichment (Fyn) | phosphorylation enrichment (Hck) | phosphorylation enrichment (Jak2) | phosphorylation enrichment (MERTK) | phosphorylation enrichment (c-Abl (mouse)) | phosphorylation enrichment (c-Src) | SH2 binding enrichment (Grb2 SH2) | SH2 binding enrichment (SHP2-C SH2) | SH2 binding enrichment (c-Src SH2) |
| --- | --- | --- | --- | --- | --- | --- | --- | --- | --- | --- | --- | --- | --- | --- | --- | --- |
| REVPVYTFSEP [FAM120B_Y368_D370Y_YF] | 1.83 | 1.9 | 1.06 | 1.14 | 1.33 | 11.1 | 1.54 | 11.5 | 4.36 | 1.1 | 3.58 | 1.72 | 9.04 | 1.16 | 0.8 | 0.496 |
| RFLRGYRQHAY [HLA-A_Y137_D140H] | 1.1 | 0.787 | 0.879 | 0.623 | 0.849 | 1.02 | 1.04 | 0.654 | 1.06 | 0.979 | 1.33 | 1.31 | 1.11 | 0.539 | 0.57 | 0.424 |
| RGFRQDAFDGK [HLA-A_Y140_YF] | 0.575 | 0.454 | 0.475 | 0.488 | 0.73 | 0.487 | 0.633 | 0.414 | 0.396 | 0.461 | 0.559 | 0.935 | 0.633 | 0.711 | 1.05 | 0.412 |
| RGGDSYGGPPR [RBMX_Y190_R187G] | 0.498 | 0.399 | 0.5 | 0.454 | 0.58 | 0.441 | 0.848 | 0.524 | 0.656 | 0.43 | 0.586 | 0.735 | 0.592 | 1.96 | 0.798 | 0.75 |
| RGKEPYTKKAL [TTC21B_Y160] | 0.815 | 0.596 | 0.698 | 0.568 | 0.522 | 0.299 | 1.01 | 0.438 | 0.436 | 0.773 | 0.724 | 0.933 | 0.829 | 0.785 | 0.78 | 0.651 |
| RGSQQYRALTV [TUBB8_Y281] | 0.862 | 0.368 | 0.518 | 0.428 | 0.364 | 0.584 | 0.633 | 0.325 | 0.866 | 0.77 | 0.516 | 0.84 | 0.594 | 1.04 | 0.919 | 0.535 |
| RIGRKYKRVRF [F8_Y442_K444R] | 2.77 | 0.967 | 1.65 | 1.13 | 1.55 | 1.45 | 3.31 | 1.35 | 1.23 | 2.55 | 2.74 | 2.59 | 3.73 | 0.554 | 0.533 | 0.302 |
| RKELFYKADGE [SERPINC1_Y272] | 1.12 | 0.824 | 0.548 | 0.713 | 0.638 | 0.783 | 1.08 | 0.519 | 0.881 | 0.893 | 0.659 | 0.779 | 0.63 | 0.858 | 0.942 | 0.369 |
| RKLVDYDSAQH [BIN1_Y150_R154Q] | 0.548 | 0.648 | 0.796 | 0.425 | 1.28 | 0.737 | 0.988 | 0.4 | 0.668 | 0.56 | 0.565 | 0.871 | 0.541 | 1.1 | 0.607 | 0.541 |
| RKQQLYIAMEE [CCDC39_Y593_T594I] | 0.993 | 0.651 | 0.822 | 0.8 | 0.543 | 0.607 | 1.28 | 0.655 | 0.431 | 0.7 | 1 | 0.725 | 0.753 | 0.916 | 0.909 | 0.938 |
| RKVAQYMLENE [SLC16A6_Y224_E221V] | 0.876 | 0.612 | 0.901 | 0.648 | 0.933 | 0.861 | 0.859 | 0.716 | 0.718 | 1.03 | 0.465 | 0.506 | 0.389 | 0.697 | 0.617 | 0.697 |
| RLEPVYFVAPA [LAMC2_Y250_D247E] | 2.59 | 7.02 | 6.76 | 9.12 | 8.72 | 0.985 | 1.02 | 9.5 | 7.76 | 1.7 | 7.77 | 9.14 | 6.33 | 0.798 | 0.709 | 0.625 |
| RLLRGYRQDAY [HLA-A_Y137_F133L] | 0.985 | 0.374 | 0.611 | 0.608 | 0.519 | 0.653 | 0.777 | 0.769 | 0.645 | 0.802 | 0.694 | 0.67 | 0.537 | 0.638 | 0.593 | 0.437 |
| RLPNGYGLAYR [DLK1_Y262_S260N] | 0.706 | 0.416 | 0.528 | 0.663 | 0.573 | 0.504 | 0.737 | 0.961 | 0.571 | 0.509 | 0.453 | 0.413 | 0.423 | 1.15 | 0.55 | 0.656 |
| RLSPEYKQNEI [GJB1_Y243] | 0.82 | 0.468 | 0.555 | 0.481 | 0.446 | 0.491 | 0.682 | 0.403 | 0.584 | 0.59 | 0.621 | 0.821 | 0.72 | 0.749 | 0.933 | 0.817 |
| RLTEGYTGPFK [ZNF862_Y181_I178T] | 0.519 | 0.323 | 0.41 | 0.364 | 0.456 | 0.382 | 0.611 | 0.473 | 0.509 | 0.625 | 0.402 | 0.426 | 0.423 | 1.14 | 0.547 | 0.522 |
| RMGNLYDIDEN [GRIN2A_Y1246_D1251N] | 1.52 | 1.16 | 1.44 | 0.876 | 1.22 | 0.864 | 2.16 | 4.25 | 1.86 | 3.11 | 1.03 | 2.11 | 3.1 | 0.805 | 0.613 | 1.2 |

| Sequence | phosphorylation enrichment (AncSZ) | phosphorylation enrichment (EPHB1) | phosphorylation enrichment (EPHB2) | phosphorylation enrichment (FGFR1) | phosphorylation enrichment (FGFR3) | phosphorylation enrichment (Fer (mouse)) | phosphorylation enrichment (Fes) | phosphorylation enrichment (Fyn) | phosphorylation enrichment (Hck) | phosphorylation enrichment (Jak2) | phosphorylation enrichment (MERTK) | phosphorylation enrichment (c-Abl (mouse)) | phosphorylation enrichment (c-Src) | SH2 binding enrichment (Grb2 SH2) | SH2 binding enrichment (SHP2-C SH2) | SH2 binding enrichment (c-Src SH2) |
| --- | --- | --- | --- | --- | --- | --- | --- | --- | --- | --- | --- | --- | --- | --- | --- | --- |
| RPAPQYPHQVP [ADAM12_Y895] | 1.3 | 0.572 | 0.463 | 0.608 | 1.03 | 0.685 | 1.02 | 0.715 | 0.582 | 1.36 | 0.718 | 1.01 | 0.819 | 1.06 | 0.687 | 0.647 |
| RPCVVYGGADI [DDX3X_Y301] | 1 | 0.901 | 0.543 | 0.715 | 0.735 | 0.653 | 1.02 | 1.07 | 1.12 | 0.668 | 0.642 | 0.703 | 1.44 | 0.823 | 0.773 | 0.6 |
| RPGSGYTNIMR [PKLR_Y564] | 0.64 | 0.345 | 0.588 | 0.439 | 0.415 | 0.429 | 0.586 | 0.919 | 0.784 | 0.532 | 0.579 | 0.723 | 0.707 | 1.32 | 1.43 | 2.58 |
| RPPFTYATLIH [FOXP3_Y342_R347H] | 1.07 | 1.87 | 0.753 | 0.641 | 1.16 | 0.766 | 1.22 | 1.68 | 2.06 | 0.933 | 1.26 | 0.922 | 3.31 | 1.08 | 32.6 | 1.98 |
| RPSELYFSKIS [SMG1_Y2253_G2258S_YF] | 0.933 | 2 | 1.05 | 1.22 | 1.1 | 0.724 | 1.4 | 1.4 | 2.85 | 1.06 | 0.886 | 0.834 | 0.691 | 0.741 | 0.702 | 0.758 |
| RQIQSYTCEID [DES_Y331_H326R] | 1.02 | 0.522 | 0.514 | 0.515 | 0.726 | 0.485 | 1.08 | 0.642 | 0.745 | 0.833 | 0.489 | 0.817 | 0.474 | 0.899 | 0.701 | 0.674 |
| RQQEVYLLYKQ [RARRES1_Y159_D158V] | 1.5 | 0.757 | 0.855 | 0.672 | 1.11 | 0.611 | 1.98 | 0.919 | 0.877 | 1.34 | 0.842 | 1.13 | 1.41 | 0.918 | 0.765 | 0.61 |
| RQRTAYFSLNT [CDH1_Y68_D72N] | 0.794 | 0.661 | 0.68 | 0.586 | 0.745 | 0.552 | 1.1 | 0.699 | 0.423 | 1.34 | 0.566 | 0.77 | 0.667 | 0.901 | 14.9 | 0.871 |
| RQSHNYLGGFA [SYK_Y47_R45H] | 0.686 | 0.427 | 0.537 | 0.501 | 0.558 | 0.387 | 0.65 | 0.464 | 0.599 | 0.523 | 0.414 | 0.817 | 0.394 | 0.901 | 1.13 | 0.433 |
| RRAKGYPIDLY [ITGB2_Y125] | 1.07 | 0.684 | 0.87 | 0.718 | 0.889 | 0.73 | 1.29 | 0.787 | 1.18 | 1.34 | 1.17 | 0.868 | 1.28 | 0.707 | 0.627 | 0.466 |
| RRDRDYTNLPS [CSF1R_Y923_E920D] | 1.15 | 0.604 | 0.682 | 0.815 | 0.696 | 0.64 | 0.893 | 0.551 | 0.673 | 0.639 | 0.442 | 1.65 | 0.545 | 1.87 | 0.677 | 1.45 |
| RREWFYEVIIA [BACE1_Y260_V265A_YF] | 0.927 | 0.515 | 0.391 | 0.784 | 0.764 | 0.66 | 0.733 | 0.593 | 0.598 | 0.807 | 1.24 | 0.483 | 0.498 | 0.807 | 0.605 | 0.512 |
| RREWFYEVIIV [BACE1_Y260_YF] | 1.53 | 0.928 | 0.372 | 0.605 | 0.505 | 1.89 | 4.8 | 0.649 | 0.561 | 0.882 | 2.28 | 0.766 | 0.515 | 0.927 | 0.741 | 0.526 |
| RREWYYEVIIV [BACE1_Y260] | 0.874 | 0.516 | 0.725 | 2.85 | 2.03 | 0.835 | 0.751 | 0.571 | 0.718 | 0.389 | 0.832 | 0.771 | 0.635 | 0.873 | 0.75 | 0.545 |
| RRIHSYRGHLW [VHL_Y112] | 2.9 | 2.21 | 1.46 | 2.16 | 1.93 | 1.47 | 2.9 | 1.91 | 2.59 | 4.65 | 2.69 | 3.28 | 3.66 | 0.799 | 0.641 | 0.392 |
| RRIHSYRGHVW [VHL_Y112_L116V] | 1.56 | 0.733 | 0.486 | 0.899 | 0.965 | 0.559 | 0.99 | 0.861 | 0.736 | 1.35 | 1.12 | 0.848 | 1.04 | 0.578 | 0.25 | 0.396 |

From the supplement of paper PMC10065799, “High-throughput profiling of sequence recognition by tyrosine kinases and SH2 domains using bacterial peptide display” (eLife, 2023)
